# Assay: soluble on expression in E. coli; label from the status in PepcDB or PDB records
row,Sequence,soluble on expression in E. coli
1,PVDFNGYWKMLSNENFEEYLRALDVNVALRKIANLLKPDKEIVQDGDHMIIRTLSTFRNYIMDFQVGKEFEEDLTGIDDRKCMTTVSWDGDKLQCVQKGEKEGRGWTQWIEGDELHLEMRAEGVTCKQVFKKVH,soluble
2,MSLGCTNFIQVGTVLGAPNVFLIGDAREVGHQGYENILREAKKVLTFDLDEKLRGFKNIVVYPGTFDFEGIVKNLDSDAKITVDIAYDVNDADELSRVYGASHALAISTSSELFSSLALENLGPLLKACKTRSAKHLLLKENRGGSRLFDLESGESWEIPATLARTVNSVGVGDVYTAVFAALIDHGALTAALRGMQAATRYAQTTFPDDFKRDVQRDFKLTPDEVLSLGGVLLPWHDRPHFEIYLAAPDFSYMEKAEVDAAVEALLYHNFTVRRPVQDNGEACPGTPAEDLRSYYDRDVELLRRCSLVFAVPLNRDPGTLVEIGLAIAAGTPVVTYDPRQENNNTMVICGSDAYSDDLDQCLNSTFELLAKLREQAKEGHHHHHH,not soluble
3,MSLSRSEEMHRLTENVYKTIMEQFNPSLRNFIAMGKNYEKALAGVTFAAKGYFDALVKMGELASESQGSKELGDVLFQMAEVHRQIQNQLEETLKSFHNELLTQLEQKVELDSRYLSAALKKYQTEQRSKGDALDKCQAELKKLRKKSQGSKNPQKYSDKELQYIDAISNKQGELENYVSDGYKTALTEERRRFCFLVEKQCAVAKNSAAYHSKGKELLAQKLPLWQQACADPNKIPDRAVQLMQQMANSNGSILPSALSASKSNLVISDPIPGAKPLPVPPELAPFVGRMSAQENVPVMNGVAGPDSEDYNPWADRKAAQPKSLSPPQSQSKLSDSYSNTLPVRKSVTPKNSYATTENKTLPRSSSMAAGLERNGRMRVKAIFSHAAGDNSTLLSFKEGDLITLLVPEARDGWHYGESEKTKMRGWFPFSYTRVLDSDGSDRLHMSLQQGKSSSTGNLLDKDDLALPPPDYGTSSRAFPTQTAGTFKQRPYSVAVPAFSQGLDDYGARSVSR,not soluble
4,MGSDKIHHHHHHMGNTQWQRLLQIEIHDKNGKNRVLLRADSGRLDRLEIHFTAPFSDSPNPSEVSVTIYNLNKKSIDFIKKGNPVYIHAGYAGTSNGVITSGTIAEVKPSVLNGVDRATTFTFLEGKDYSEQKEVNITFNNGTDAHTIINRVAREANIPLSEIKLKNNKIYGSGYTADGQAMMVLEEISKACDTSLYFKRGQLVIKNFRDGNKERYRLSPETGLINQPTKVESHDYTGWSVECLLQHKITTGTAVYIDSKNVKGNFYVKNGQHSYDGSRFVTTCEVVT,not soluble
5,SLSTADALDDENTFKILVATDIHLGFMEKDAVRGNDTFVTLDEILRLAQENEVDFILLGGDLFHENKPSRKTLHTCLELLRKYCMGDRPVQFEILSDQSVNFGFSKFPWVNYQDGNLNISIPVFSIHGNHDDPTGADALCALDILSCAGFVNHFGRSMSVEKIDISPVLLQKGSTKIALYGLGSIPDERLYRMFVNKKVTMLRPKEDENSWFNLFVIHQNRSKHGSTNFIPEQFLDDFIDLVIWGHEHECKIAPTKNEQQLFYISQPGSSVVTSLSPGEAVKKHVGLLRIKGRKMNMHKIPLHTVRQFFMEDIVLANHPDIFNPDNPKVTQAIQSFCLEKIEEMLENAERERLGNSHQPEKPLVRLRVDYSGGFEPFSVLRFSQKFVDRVANPKDIIHFFRHREQKEKTGEEINFGKLITKPSEGTTLRVEDLVKQYFQTAEKNVQLSLLTERGMGEAVQEFVDKEEKDAIEELVKYQLEKTQRFLKERHIDALEDKIDEEVRRFRETRQKNTNEEDDEVREAMTRARALR,soluble
6,MTIIGNPEIGLYTGKLPKGCELCRLGGKLVLFITGECDDNCYYCPVSDDRFGKNKIFANETEVNNSMDVIYEAYRMKALGAGITGGDPILEIGRVIEIIEELKNEFGYDFHIHLYTTGRYVNDDIMRELVNAGLDEMRFHPVKELYLNAVKVALKYDIDIGLELPAIPNEKDKIVRLIKWAEENNVKFVNLNELELNSRNYLNLNSKGFHAKHGITGVEGSFETALDVLKKFEDNKKITVHYCSSIYKDLVETRTRFFRIIKYSSKPYEEYTNEATVVRAIVKTKGEIPILENFGESTGSDEYSISPSIVGDLLNDYTNLINEIYIVEEHPDSRRLRVGEKLIYSKSKNS,not soluble
7,MQTFVLATNSETVSQTLCSYLEGVLDLEDSVYAVNSQPGGDRTPPDAVADGKAALEVVSDRLGDQVSVETYQIIRGNSPADDIFDIAAEVDADELVIGVRKRSQTDRLIFGSVAQDIMRQSDYPMRVVPRD,not soluble
8,GMHVYESDVSWIDDRRTEVSVGDHRIEVDSPPEFGGPEGQLYPETLFPSVLASCLLTTFLEFKDRMGINLKSWNSHVTAELGPSPEKGFKFHRIKIHVKIGVNDEDKEKIPRAMQLAEKYCFISRAIRNNVEEIVDYEFV,soluble
9,MKAMRYEQISENAFKGKIQVYLEQILGDASLILKTLHEKDQCLLCELDDLGHVFQDMQGIASSFYLQSYIEEFTPAFIELAKAIKALSEHKHGALIVIERADPVERFIQKGTSLHAEISSSLIESIFFPGNPLHDGALLVRENKLVSASNVLPLTTKEVDIHLGTRHLAALGMSGYTDALVLVVSEETGKMSFAKDGVLYPLISPRT,not soluble
10,MGSDKIHHHHHHMQFPSIEDLRARNTMKWTRYGQGVLPLWVAESDFSTCPAVLQAITDAVQREAFGYQPDGSLLSQATAEFYADRYGYQARPEWIFPIPDVVRGLYIAIDHFTPAQSKVIVPTPAYPPFFHLLSATQREGIFIDATGGINLHDVEKGFQAGARSILLCNPYNPLGMVFAPEWLNELCDLAHRYDARVLVDEIHAPLVFDGQHTVAAGVSDTAASVCITITAPSKAWNIAGLKCAQIIFSNPSDAEHWQQLSPVIKDGASTLGLIAAEAAYRYGTDFLNQEVAYLKNNHDFLLHEIPKRIPGAKITPMQATYLMWIDFRDTTIEGSPSEFFIEKAKVAMNDGAWFGEDGTGFCRLNFATSREVLEEAIDRMAKAVSHHT,not soluble
11,MSLEKNKEYIFDIISQGYEGEGIAKIDNKYPIFIEGALKGEKVKVRIVKVNKNFAYGKLMEVLEASEERVNPPCAIYKRCGGCKLQHASYKAQLDFKWDRVKDCVSKIGKLDPSIVKYPLGMEEPWRYRNKVQLPIGLINGEVKIGFFAPRSHDIIDMESCLIQDEIGDKVVKLTREWIEKFNIRPYNVDGEYDEKGIVRHIMIRRGFTTNEVMVVLVTNGEKLPHKEEFVDLMVKNIPGIKSVIQNINSKKTNVILGLESKTLWGEDTISDYIGDFRFNISPLSFFQVNPTQTEVLYGKALEYANLTGNEEVFDAYCGTGTITLFLSQKAKKVYGVEIIPQAIDNAWINAKENKVENVEFFVGESEVVIPDLINKGVKADVVVVDPPRKGCDKKLLDAITNINAKKIVYVSCDPSTLGRDLAILEENGYKTLEVQPVDMFPNTSHVENVAKLIKKEGHHHHHH,soluble
12,MLQRSVFFLSDRTGITAETLGHSLLTQFDGIEWKKHYASFLDSAAKAQAVIEQINTIAEQEGQPALVFSTLLDPVMLASIRRADCVLFDFFETCLGTLEAVLQQPPARIPGRSHVLRQDASYFRRIAAIQYALNSDDGANAKILADADVIVVGVSRTGKTPVCVYLALQYGVLAANYPFTPEDMGAIQLPPLLQPLRKKLFGLTLNTSRLQSIREERYPGSHYASFAECQRELQWQNELYRQFDIPSINTTDVSIEEISASIVNRAHLERRQHGTLEHHHHHH,not soluble
13,SAAGVDGDTAAAAAAGGGVVVVFDFDRTIIEWDSDDWVITKLGASDAFRRLRPTMRWNPLMDRMMVELHAQGRSADDIRDCLKSAPLDAHVLSAITTASALGCDLRVASDANAFFIETVLEHHGVLGCFSEISTNPARVDGNGRLRISPFHDPDDSSPHGCSLCPENMCKGKIIERIQATANGKRHFIYIGDGRGDYCPSLKLGEGDYVMPKEKYPLWNLISSNKQLLKAEVHPWNNGEELEQTLLKLVNKLITPPAQPSQFEYKCDMSNPVSTEVGQALRVPH,soluble
14,MIIKDILRENQDFRFRDLSDLKHSPKLCIITCMDSRLIDLLERALGIGRGDAKVIKNAGNIVDDGVIRSAAVAIYALGDNEIIIVGHTDCGMARLDEDLIVSRMRELGVEEEVIENFSIDVLNPVGDEEENVIEGVKRLKSSPLIPESIGVHGLIIDINTGRLKPLYLDE,soluble

# — the DeepSol protein solubility set
